Measurements as given in a protein production outcome set (Wang et al. 2014).

Assay: label from the status in PepcDB records

Row | Sequence | protein production
1 | MTRAKQIILWASLSAMPLIAQASERSDDEIKALVYQAILERPEIILQAVEQLQQAEEAAQAASAHAALTENRDSLFNDPNAPVLGNPEGDVTVVEFFDYNCPYCRRAMAEVQGLVDADPNVRLVYREWPILGEGSDFAARAALAARQQGKYEAFHWALMGMSGKANETGVLRIAREVGLDTEQLQRDMEAPEVTAHIAQSMALAQKLGFNGTPSFVVEDALVPGFVEQSQLQDAVDRARKAAAK | failed
2 | MTRAPSGGTEAPPGRTARRAGWDGRCQAAGHRSRRGGLSTGGDEVSTSDSDDAGLRSFLADPAHLTLDLRTATARCVKALGLRHAVVYLVDLQQRHLVPQTAVAPSVPVDGSPAGWAYRTQSLRVEESGTGGGITAWFPLLDGAERLGVLALCETALTASSLTRGRALASLLAMVITSKRLYEDSFVRRTRTERMTLPAEMLRALLPPRTIGNGNVVSTAVLEPAYEIGGDAFDHALTETTLHVAVLDAMGHDLASGLTTTVSLAACRNARRTGADLPELVRSVDEALSSWLPDKFCTSVIAQLDLVTGVLRWANCGHPAPILIRDQRLVIDAMERDADPPMGMPSLLSPHARRTHEISLEPGDRVLMYTDGVVEARTREAKLLGLERFADYVIRATAGGELAPESLRRLIHSILAMQEGRLRDDATLLMFEWRPPS | failed
3 | MTRKKLNLSYITNESMRKATFNKRKKGLVKKIHELSVLCGIEACAVIYSPFNSNPEVWPSNSEVKNVMENFEMLTKLEQEKKMVSHEGFIRQNISKTMESNNKKMIDNAERTMKEAMFQLLSGKGEKLNLTDRNREDLCKYIDQYLKELYHHKNKTINQSHIEPGESSGATNAMTPTSVVENPNFNHLSHNQYQYQQQFGYPILVQDGIYNPSQIQNQHEEWLDDHMMNHSKEISHPLMDDNNFYYQQP | not failed
4 | MTRLIQAIFILGFAAFVACTPKSAKSFAKAEVQYKQAEYQHAIENYQQSLSEGGDVAQCNYYIAESYRRSNRIQEAEPFYKKAIEAGIKDEEAHFFYANALKSVGNYEGAATQYKQYIKTGSNFDYINRAKKELENLKALQEVVEKETYYKVENIGQINSPEAEYAPYIYKNQLYFTSSRDAEKMHAATGTGFTNIHEYVFDGVEKFSGQSVPLSNAINTDGAHEASCILTKDGKTMIFARGNSGAKKGPQDVDLFKTTLQSDGKWSEPVMLAINDPAAWDACPALSLDEKTLYFASNREAEGALGNVDIYKATLDEKGEWSNPVNIGAPINTRGNDMYPSFNKDGKFYFASDGHPSLGSLDIFYVDPKESKIVNMGKPINTSYDDFGLVWKDSLEGYFASNRIDNGAKGDDDIYFVRNTFWDRRAKYYVDGTSFAKSKKNPKAILPNSIIYLLSCKGDTLKSIVSDTEGKFEFELKPDTCYYLAAHSDKYFAMPKSEWTPVKIATVPIKDLDIGDNSIKKKAEVMLVKKERIVIVRNILYDYDKWDIRPDAAVELDTMVMLMNANPEIQIELGSHTDERGSAEYNRVLAQKRAQAAVDYIIAHGISKDRIIAKGYGEDEPAIRNAKTEADHQTNRRTTFKVLNHFSDELEIKSGE | failed
5 | MTRQGWLVPCLSHGKDDQLQDELSELSKAYRKKFQTDLHTKSGDIIDPSGEFLYVYLDEENYRICRQSMVLVSNAPDGLIATTLEPYSDSYTFRQVREQLQAFSGDGGRINYSRNEHSSSYFLTIQASNEFKHVGAVRNTFGQSKDIWKRRMPDASQPLDYHLIAVGCSAFLPEAALDDVESDGAVLEHHHHHH | not failed
6 | MTRSKKFIIMITTVIVIIAFIFLALFAWKIYAERNYNNTNIREAAQFNPLIRETDYYVQVSDPLKKNGKNQVGAYTYMTDGFDKDGVGHTVTFNGMKKLKKGAYLKVSLFLGEAKSYNEISKDKVPHKPLKKLEMQQLEHHHHHH | not failed
7 | MTRSVWLKADSEVGDWETRKRRITAGIEAGVDWVLVDEEDVDRVSELGEINIAAFTNGDVHVMEAEAEDSEADATIVGKDGEGDGTVDLPSDFSGSADLSTLRQNGAAPDGGYVRIFDEDYEAFAEAVAAEADFTIVIGENWQIIPLENLIARVGEETDLIAGVRTAEDARTAYETLELGADGVLLDTDEVDEIRKTVEVRDEMGRESLDLEYAEVTAIEQTGSADRVCIDTGSLMEHDEGMLVGSMARGLFFVHAETAESPYVASRPFRVNAGAVHAYVRTPDGGTKYLSELQSGDEVQIVDANGRTREAIVGRAKIEKRPMFRVQAETEDSDRIETLLQNAETIKVHTQDGRTAVTDLEPGDEILIHHEDTATHFGERIEESIIEK | failed
8 | MTRTFDPIREMDRLLSDVTRTPATVAVPMDLYREGDDYTVAVDLPGVDPASIDIDVDDRTLTIRAERAAKVAKEAQWLSRERAMGTFARQLTLGHGLATDRITAEYTDGVLTLTIPVAETAKPRKVEVRHGSTTIDAMTDQAQVGSGEHQEQ | failed
9 | MTRTRVIAALVMAPVAMCSILFLPTAWLASLTAIIFLWGLWEWMKLSQVEDTLVRTVLLTLNLLLMVLLVWVSAHSLVLFQIATLIGIAWWILALLWLRFLGFCADPNQRTAKIVKVTAGTLAVIPAWSALVLLHSGDKPGSTFPESLHAHLWLLTAQIMIWAADSGAYFSGRLFGKHKLAPQISPNKTVEGLLGGILTGLAVAAGFGLLNGVTMAQFPSLLLVSFVAILASVIGDLFESLLKRHAGIKDSGSMIPGHGGVLDRIDSTLAALPVFALGKDIFGF | failed
10 | MTRTTAVGFDRVTKGYGDVRAVDGLTLALHPGETVALLGPNGAGKSTTLDLLLGLRRPDAGTVHVFGGEPREAVVAGRVGAMLQSGGLMDEVTVAELVRLGCALHPRAYPAADVLARAGLTKIADRRVDKLSGGQAQRVRFALATAGDSDLIVLDEPTTGMDVTARQAFWATMREQADQGRTVLFATHYLEEADAIADRVLVLHRGRLLADGTAAEIKARAGTRRISFDLDGGPDASPDASPDGSRNGTVDEATLRALPHLTALDVSGRTVRIQSADADATVYALYGLGLYPRNLEVAGLGLEQAFVALTAAEEAKQP | failed
11 | MTRVTTTGIPMNNVPSGRHHVSTSRNLFAWFLFALLLLSLYLSYQLVAPFLHTIILSSVFSASIYPFYRRLTSYLGERPVPAALLVLAGVVILVVIPVVVFVIGLIPQAVASVSAITRWLAGHGGLDGLNDAALAPYIAWVRENLPFIDPAQLDVRSSLVQASRAAGQTLLQWGTYVLGNTLLLFGHFLLLLLCMFFMLKDGAWMVQRVRYLSPLRIDQQDRIILELRRVGRSVLVGGLLVAVIQGLLGGVALAAVGIPALFWGTLMAFASLVPVVGTGLVWVPAVCYLLLTSQWESALFLSLWCGIVVVGADSILRPYFMRGGVGMPVFFIFLSILGGVKAFGMLGILDGPLILSFTVVMLSLYGDEYRDILDAGSLAHSRGAECEKGEASEEGPDGT | failed
12 | MTRYLALDAFRGITIALMILVNTPGTWSHVYAPLLHAEWDGATPTDLVFPFFLFIIGSAMFFSFKKSNFSASPEQFRKIIKRGFIMFFIGFMLNVIPFTVNAEDWRIMGILQRIGIAYTVAACLVLTLNRTGVFIASAVILLAYWALLLSMGEGALTIEGNIIRQLDLAVFGANHMYTMRGVAFEPEGLLSTIPAIVNMLLGFELTRYLTSIEDKRSSVIKLTLIGGLAVGFGALWGLVLPINKSLWTPSYVIYSTGFACLLLAAFIWLIDIMKQVKLAEPLLVYGTNPLFVYVLSFLVVTMYLNINVGDVSMYAWLYKQLSGVFTPKLASFIFAFSHVAFFWYVSLKLYQRKIFIKI | failed
13 | MTSGTSVINDKVLQYETFISEVLRRDLQKVLEQRDAVYEKIAQYLQLKNTIQSIQESGSKELKTDVDLGCNFYVQAHVPDASRIYVAVGYGFFVEFTHAEALKFIEKKTNQLTEYTEVLTKDAAKIKANIRMVLEGLRELQGLKDLPEDRRREVF | not failed
